B1: TRL10014 (antibody, IgG1, V domains shown)
VH: QVQLVESGGGLVKPGGSLRLSCTASGFSFSDSYMNWIRQAPGKGLEWLAYISTSATYTYSADSVKGRFTISRDNAKNSLYLQMNSLRDEDTAVYYCAREGLFYDGLYGMDVWGQGTTVIVSS
VL: DILMTQSPLSLPVTPGEPASISCRSSQSLLHSNGYNYLNWYLQKPGQSPQLLIYLGSNRASGVPDRFSGSGSGTDFTLKISSVEAEDVGVYYCMQALHTPRTFGQGTKVEIKR
notes: Native human mAb from donor 210; also called TRL100014
B2: TRL10051 (antibody, IgG1, V domains shown)
VH: QVQLVESGGGLVQPGGSLRLSCAASGFTFSSYVMSWVRQAPGKGLEWVSSIRVSGDRAHYADSVKGRFTVSRDDSKNTVYLQMNSLRVEDTAVYYCVKDQAERLLRAVTTHFDYWGQGALVTVSS
VL: DIVMTQSPLSSPVTLGQPASISCRSSQSLVHSDGNTYLSWLQQRPGQPPRLLIYKVSRRFSGVPDRFSGSGAGTDFTLKISRVEAEDVGIYYCMQASQFPRTFGQGTKVEIKR
notes: Native human mAb from donor 223
B3: TRL10005 (antibody, IgG1, V domains shown)
VH: QVQLVESGGGLVKPGGSLRLSCAASGFTFNDHYMTWIRQAPGKGLEWISYISSSGGTIFYAESVKGRFTISRDNANNILFLQMNSLRAEDTAVYYCARGALRFLEWSHLGSWGQGTLVTVSS
VL: DIVLTQSPGTLSLSPGERATLSCRASQRVSSSYLAWFQQKPGQAPRLLIYGASTRATGIPDRFSGSGSGTDFTLTISRLEPEDFAVYYCQQYGMSSWTFGQGTKVEIKR
notes: Native human mAb from donor 236

The target in the test is T1, ALK Extracellullar Domain (ECD), generated by Trellis in mammalian cells (human, UniProt Q9UM73 19-1038).
T1 construct: extracellular domain; Recombinant ECD made in-house in mammalian cells; also called ALK ECD; extracellular domain of ALK
T1 sequence (Q9UM73 19-1038): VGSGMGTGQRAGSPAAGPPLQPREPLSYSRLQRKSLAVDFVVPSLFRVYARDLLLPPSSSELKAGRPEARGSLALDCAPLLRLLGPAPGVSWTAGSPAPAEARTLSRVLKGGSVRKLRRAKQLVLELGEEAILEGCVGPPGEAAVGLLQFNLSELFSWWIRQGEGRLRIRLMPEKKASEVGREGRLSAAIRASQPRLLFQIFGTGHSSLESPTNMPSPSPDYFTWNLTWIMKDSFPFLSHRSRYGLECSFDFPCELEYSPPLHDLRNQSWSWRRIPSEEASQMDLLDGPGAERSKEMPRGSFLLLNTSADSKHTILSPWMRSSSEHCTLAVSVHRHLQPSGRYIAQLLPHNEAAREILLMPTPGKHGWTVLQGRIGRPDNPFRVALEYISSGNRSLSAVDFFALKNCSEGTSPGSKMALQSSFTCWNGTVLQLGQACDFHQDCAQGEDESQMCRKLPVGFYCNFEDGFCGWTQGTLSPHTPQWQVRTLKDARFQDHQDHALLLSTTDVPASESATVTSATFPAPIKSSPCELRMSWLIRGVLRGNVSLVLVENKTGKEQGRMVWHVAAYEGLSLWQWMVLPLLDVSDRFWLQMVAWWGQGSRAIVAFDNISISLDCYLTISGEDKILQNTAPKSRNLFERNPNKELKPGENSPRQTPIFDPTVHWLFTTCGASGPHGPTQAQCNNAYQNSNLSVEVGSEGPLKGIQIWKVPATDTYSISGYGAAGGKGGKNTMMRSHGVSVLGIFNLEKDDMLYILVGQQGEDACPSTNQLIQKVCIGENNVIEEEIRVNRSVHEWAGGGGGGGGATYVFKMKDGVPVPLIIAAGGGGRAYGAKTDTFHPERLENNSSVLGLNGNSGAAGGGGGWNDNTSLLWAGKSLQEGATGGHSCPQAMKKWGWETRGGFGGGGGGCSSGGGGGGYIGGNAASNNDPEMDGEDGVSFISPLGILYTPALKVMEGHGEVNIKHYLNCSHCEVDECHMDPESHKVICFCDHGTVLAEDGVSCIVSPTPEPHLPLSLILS
Kind of test: adsorption ELISA on ALK ECD, serial dilutions, estimate of binding affinity. As for the experimental part:
Purified mAbs were tested in adsorption ELISA using ALK Extracellullar Domain (ECD), generated by Trellis in mammalian cells. TRL10001 is of particular interest based on its sub-nM affinity to the target.
For B1, the “Affinity” value is 75 nM.

B2: the “Affinity” value is 1 nM.

Take B3: the “Affinity” value is 1 nM.

The values are drawn from patent publication US20240254258A1 (TRELLIS BIOSCIENCE, published 2024).
